# Assay results reported in article PMC11187563, “The importance of tyrosines in multimers of cyclic RGD nonapeptides: towards αvβ6-integrin targeted radiotherapeutics” (RSC Medicinal Chemistry, 2024).
# Read-outs that look alike come from different tables or passages of the source.
# What was measured:
# [1] = SPECT imaging of H2009 tumor xenograft, ROI-based tumor uptake; format: in vivo; conditions: SCID, mouse, iv, total radioactivity, i.v. injection of 36.5 MBq, scan time 1 h
# Experimental: Fig. 6 Single-photon emission computed tomography (SPECT) of a SCID mouse bearing a human H2009 tumor xenograft on the right shoulder, recorded at 4 time points (1 h, 3 h, 24 h, and 72 h) after i.v. injection of 36.5 MBq of ^177Lu-Y8, scan time 1 h. Tumor position is indicated by white dotted circle. Adjacent figures denote ROI-based tumor uptakes in % IA mL^−1. TEXT PRINTED IN THE PICTURE: no label printed: % IA / mL: 2.8 (1 h p.i.); % IA / mL: 2.7 (3 h p.i.); % IA / mL: 2.4 (24 h p.i.); % IA / mL: 2.0 (72 h p.i.) DOUBTS OF THE COPYIST ABOUT THIS PICTURE: The picture prints no substance label. The unit % IA / mL is printed only at the colour scale bar, and assigning it to the numbers beside the dotted circles is assumed.
# SPECT imaging was performed for 60 min per animal on a nanoScan SPECT/CT (Mediso, Budapest, Hungary) at different timepoints (1 h, 3 h, 24 h, 72 h) after intravenous injection of approx. 40 MBq [^177Lu]Lu-Y8 per animal (n = 2). Reconstruction, image analysis and quantification of SPECT data were performed using Nucline and Interview fusion software (both Mediso).
# [2] = test system: αvβ6-integrin expressing human lung adenocarcinoma cell line H2009 xenografts; experiment: Ex vivo biodistribution of 177Lu-labeled peptide tetramers in H2009 xenografted SCID mice; conditions: H2009 bearing SCID mice
# How it was run: (§1)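 SCID mice carried subcutaneous H2009 xenografts on the right shoulder. 177Lu-labeled conjugates were injected i.v., and ex vivo organ distribution was measured at two time points post-injection.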
# [3] = as above; conditions: CB17 SCID, mouse, iv, total radioactivity; for tissue uptake at 1.5 h: 90 min p.i.; for tissue uptake at 72 h: 199 pmol, 3 d p.i.; for tissue uptake at 24 h: 154 pmol, 24 h p.i.
# How it was run: as §1
# [4] = adrenals, H2009 bearing SCID mice, read-out: Adrenals %IA/g
# [5] = blood, H2009 bearing SCID mice, read-out: Blood %IA/g
# [6] = bone, H2009 bearing SCID mice, read-out: Bone %IA/g
# [7] = heart (myocard), H2009 bearing SCID mice, read-out: Heart (myocard) %IA/g
# [8] = kidneys, H2009 bearing SCID mice, read-out: Kidneys %IA/g
# [9] = large intestine (empty), H2009 bearing SCID mice, read-out: Large intestine (empty) %IA/g
# [10] = liver, H2009 bearing SCID mice, read-out: Liver %IA/g
# [11] = lung, H2009 bearing SCID mice, read-out: Lung %IA/g
# [12] = muscle, H2009 bearing SCID mice, read-out: Muscle %IA/g
# [13] = pancreas, H2009 bearing SCID mice, read-out: Pancreas %IA/g
smiles,measurement,setting,value
"CC(C)C[C@@H]1NC(=O)[C@H](CC(=O)O)NC(=O)CNC(=O)[C@H](CCCNC(=N)N)NC(=O)[C@H](Cc2ccc(O)cc2)NC(=O)[C@H](CCCCNC(=O)CCc2cn(CCCNC(=O)CCP(=O)(O)CN3CCN(CP(=O)(O)CCC(=O)NCCCn4cc(CCC(=O)NCCCC[C@H]5C(=O)N[C@@H](Cc6ccc(O)cc6)C(=O)N[C@@H](CCCNC(=N)N)C(=O)NCC(=O)N[C@@H](CC(=O)O)C(=O)N[C@@H](CC(C)C)C(=O)N[C@@H](C)C(=O)N[C@@H](Cc6ccc(O)cc6)C(=O)N6CCC[C@@H]6C(=O)N5C)nn4)CCN(CP(=O)(O)CCC(=O)NCCCn4cc(CCC(=O)NCCCC[C@H]5C(=O)N[C@@H](Cc6ccc(O)cc6)C(=O)N[C@@H](CCCNC(=N)N)C(=O)NCC(=O)N[C@@H](CC(=O)O)C(=O)N[C@@H](CC(C)C)C(=O)N[C@@H](C)C(=O)N[C@@H](Cc6ccc(O)cc6)C(=O)N6CCC[C@@H]6C(=O)N5C)nn4)CCN(CP(=O)(O)CCC(=O)NCCCn4cc(CCC(=O)NCCCC[C@H]5C(=O)N[C@@H](Cc6ccc(O)cc6)C(=O)N[C@@H](CCCNC(=N)N)C(=O)NCC(=O)N[C@@H](CC(=O)O)C(=O)N[C@@H](CC(C)C)C(=O)N[C@@H](C)C(=O)N[C@@H](Cc6ccc(O)cc6)C(=O)N6CCC[C@@H]6C(=O)N5C)nn4)CC3)nn2)N(C)C(=O)[C@H]2CCCN2C(=O)[C@H](Cc2ccc(O)cc2)NC(=O)[C@H](C)NC1=O [Compound 177Lu-Y8, metal not drawn]",tissue uptake per volume at 1 h,[1]; 1 h p.i.,2.8 %ID/mL
same,tissue uptake per volume at 3 h,[1]; 3 h p.i.,2.7 %ID/mL
same,tissue uptake per volume at 24 h,[1]; 24 h p.i.,2.4 %ID/mL
same,tissue uptake per volume at 72 h,[1]; 72 h p.i.,2 %ID/mL
same,"tumor/organ ratio, Kidneys",[2]; 90 min p.i.,0.0
same,"tumor/organ ratio, Kidneys",[2]; 24 h p.i.,0.0
same,"tumor/organ ratio, Kidneys",[2]; 3 d p.i.,0.0
same,tissue uptake at 1.5 h,"[3]; H2009 tumor, 124 pmol, H2009 bearing SCID mice, read-out: Tumor H2009 %IA/g",5.89 %ID/g
same,tissue uptake at 72 h,"[3]; H2009 tumor, H2009 bearing SCID mice, read-out: Tumor H2009 %IA/g",1.67 %ID/g
same,tissue uptake at 1.5 h,"[3]; adrenals, 124 pmol, H2009 bearing SCID mice, read-out: Adrenals %IA/g",0.71 %ID/g
same,tissue uptake at 24 h,[3]; [4],0.25 %ID/g
same,tissue uptake at 72 h,[3]; [4],0.22 %ID/g
same,tissue uptake at 1.5 h,"[3]; adrenals, + 50 nmol non-labeled compound 10 min prior to activity, n = 2, read-out: Adrenals %IA/g, + 50 nmol cold",0.53 %ID/g
same,tissue uptake at 1.5 h,"[3]; blood, 124 pmol, H2009 bearing SCID mice, read-out: Blood %IA/g",2.54 %ID/g
same,tissue uptake at 24 h,[3]; [5],0.04 %ID/g
same,tissue uptake at 72 h,[3]; [5],0.03 %ID/g
same,tissue uptake at 1.5 h,"[3]; blood, + 50 nmol non-labeled compound 10 min prior to activity, n = 2, read-out: Blood %IA/g, + 50 nmol cold",1.06 %ID/g
same,tissue uptake at 1.5 h,"[3]; bone, 124 pmol, H2009 bearing SCID mice, read-out: Bone %IA/g",3.24 %ID/g
same,tissue uptake at 24 h,[3]; [6],0.68 %ID/g
same,tissue uptake at 72 h,[3]; [6],0.57 %ID/g
same,tissue uptake at 1.5 h,"[3]; bone, + 50 nmol non-labeled compound 10 min prior to activity, n = 2, read-out: Bone %IA/g, + 50 nmol cold",0.76 %ID/g
same,tissue uptake at 1.5 h,"[3]; heart (myocard), 124 pmol, H2009 bearing SCID mice, read-out: Heart (myocard) %IA/g",1.01 %ID/g
same,tissue uptake at 24 h,[3]; [7],0.16 %ID/g
same,tissue uptake at 72 h,[3]; [7],0.13 %ID/g
same,tissue uptake at 1.5 h,"[3]; heart (myocard), + 50 nmol non-labeled compound 10 min prior to activity, n = 2, read-out: Heart (myocard) %IA/g, + 50 nmol cold",0.64 %ID/g
same,tissue uptake at 1.5 h,"[3]; kidneys, 124 pmol, H2009 bearing SCID mice, read-out: Kidneys %IA/g",166 %ID/g
same,tissue uptake at 24 h,[3]; [8],235 %ID/g
same,tissue uptake at 72 h,[3]; [8],237 %ID/g
same,tissue uptake at 1.5 h,"[3]; kidneys, + 50 nmol non-labeled compound 10 min prior to activity, n = 2, read-out: Kidneys %IA/g, + 50 nmol cold",178 %ID/g
same,tissue uptake at 1.5 h,"[3]; large intestine (empty), 124 pmol, H2009 bearing SCID mice, read-out: Large intestine (empty) %IA/g",3.66 %ID/g
same,tissue uptake at 24 h,[3]; [9],1.46 %ID/g
same,tissue uptake at 72 h,[3]; [9],0.48 %ID/g
same,tissue uptake at 1.5 h,"[3]; large intestine (empty), + 50 nmol non-labeled compound 10 min prior to activity, n = 2, read-out: Large intestine (empty) %IA/g, + 50 nmol cold",0.89 %ID/g
same,tissue uptake at 1.5 h,"[3]; liver, 124 pmol, H2009 bearing SCID mice, read-out: Liver %IA/g",1.16 %ID/g
same,tissue uptake at 24 h,[3]; [10],0.98 %ID/g
same,tissue uptake at 72 h,[3]; [10],0.7 %ID/g
same,tissue uptake at 1.5 h,"[3]; liver, + 50 nmol non-labeled compound 10 min prior to activity, n = 2, read-out: Liver %IA/g, + 50 nmol cold",0.7 %ID/g
same,tissue uptake at 1.5 h,"[3]; lung, 124 pmol, H2009 bearing SCID mice, read-out: Lung %IA/g",5.63 %ID/g
same,tissue uptake at 24 h,[3]; [11],1.2 %ID/g
same,tissue uptake at 72 h,[3]; [11],0.73 %ID/g
same,tissue uptake at 1.5 h,"[3]; lung, + 50 nmol non-labeled compound 10 min prior to activity, n = 2, read-out: Lung %IA/g, + 50 nmol cold",3.39 %ID/g
same,tissue uptake at 1.5 h,"[3]; muscle, 124 pmol, H2009 bearing SCID mice, read-out: Muscle %IA/g",0.87 %ID/g
same,tissue uptake at 24 h,[3]; [12],0.36 %ID/g
same,tissue uptake at 72 h,[3]; [12],0.23 %ID/g
same,tissue uptake at 1.5 h,"[3]; muscle, + 50 nmol non-labeled compound 10 min prior to activity, n = 2, read-out: Muscle %IA/g, + 50 nmol cold",0.2 %ID/g
same,tissue uptake at 1.5 h,"[3]; pancreas, 124 pmol, H2009 bearing SCID mice, read-out: Pancreas %IA/g",0.42 %ID/g
same,tissue uptake at 24 h,[3]; [13],0.14 %ID/g
same,tissue uptake at 72 h,[3]; [13],0.12 %ID/g
same,tissue uptake at 1.5 h,"[3]; pancreas, + 50 nmol non-labeled compound 10 min prior to activity, n = 2, read-out: Pancreas %IA/g, + 50 nmol cold",0.19 %ID/g
